Numbering of substitutions follows the chain as printed.
B1: H183/L072 VL S93T (antibody, name in Kabat numbering, V domains shown)
VH: QVQLVESGGGLVQPGRSLRLSCAASGFTFSNAWMHWVRQAPGKGLEWVAQIKDKGNAYAAYYAPSVKGRFTISRDDSKNSIYLQMNSLKTEDTAVYYCHYVHYASASTVLPAFGVDAWGQGTTVTVSS
VL: DIVMTQSPLSLPVTPGEPASISCQASQELVHMNRNTYLHWYQQKPGQAPRLLIYKVSNRFPGVPDRFSGSGSGTDFTLKISRVEAEDVGVYYCAQGTTVPFTFGQGTKLEIK
notes: Dual-Ig
B2: H183/L072 VL T92R (antibody, name in Kabat numbering, V domains shown)
VH: B1 VH
VL: B1 VL with T97R, T98S
notes: Dual-Ig
B3: H183/L072 VL T92G (antibody, name in Kabat numbering, V domains shown)
VH: B1 VH
VL: B1 VL with T97G, T98S
notes: Dual-Ig
B4: H183/L072 VL T31Y (antibody, name in Kabat numbering, V domains shown)
VH: B1 VH
VL: B1 VL with T36Y, T98S
notes: Dual-Ig
B5: H183/L072 VL T92N (antibody, name in Kabat numbering, V domains shown)
VH: B1 VH
VL: B1 VL with T97N, T98S
notes: Dual-Ig
B6: H183/L072 VL T31K (antibody, name in Kabat numbering, V domains shown)
VH: B1 VH
VL: B1 VL with T36K, T98S
notes: Dual-Ig
B7: H183/L072 VL T92L (antibody, name in Kabat numbering, V domains shown)
VH: B1 VH
VL: B1 VL with T97L, T98S
notes: Dual-Ig
B8: H183/L072 VL T31R (antibody, name in Kabat numbering, V domains shown)
VH: B1 VH
VL: B1 VL with T36R, T98S
notes: Dual-Ig
B9: H183/L072 VL T92F (antibody, name in Kabat numbering, V domains shown)
VH: B1 VH
VL: B1 VL with T97F, T98S
notes: Dual-Ig
B10: H183/L072 VL T97G (antibody, name in Kabat numbering, V domains shown)
VH: B1 VH
VL: B1 VL with T98S, T102G
notes: Dual-Ig
B11: H183/L072 VL T92K (antibody, name in Kabat numbering, V domains shown)
VH: B1 VH
VL: B1 VL with T97K, T98S
notes: Dual-Ig
B12: H183/L072 VL T92H (antibody, name in Kabat numbering, V domains shown)
VH: B1 VH
VL: B1 VL with T97H, T98S
notes: Dual-Ig
B13: H183/L072 VL T92E (antibody, name in Kabat numbering, V domains shown)
VH: B1 VH
VL: B1 VL with T97E, T98S
notes: Dual-Ig
B14: H183/L072 VL T97I (antibody, name in Kabat numbering, V domains shown)
VH: B1 VH
VL: B1 VL with T98S, T102I
notes: Dual-Ig
B15: H183/L072 VL T97A (antibody, name in Kabat numbering, V domains shown)
VH: B1 VH
VL: B1 VL with T98S, T102A
notes: Dual-Ig
B16: H183/L072 VL T31I (antibody, name in Kabat numbering, V domains shown)
VH: B1 VH
VL: B1 VL with T36I, T98S
notes: Dual-Ig
B17: H183/L072 VL T97L (antibody, name in Kabat numbering, V domains shown)
VH: B1 VH
VL: B1 VL with T98S, T102L
notes: Dual-Ig
B18: H183/L072 VL S93V (antibody, name in Kabat numbering, V domains shown)
VH: B1 VH
VL: B1 VL with T98V
notes: Dual-Ig
B19: H183/L072 VL T31S (antibody, name in Kabat numbering, V domains shown)
VH: B1 VH
VL: B1 VL with T36S, T98S
notes: Dual-Ig
B20: H183/L072 VL T97F (antibody, name in Kabat numbering, V domains shown)
VH: B1 VH
VL: B1 VL with T98S, T102F
notes: Dual-Ig
B21: H183/L072 VL T92S (antibody, name in Kabat numbering, V domains shown)
VH: B1 VH
VL: B1 VL with T97S, T98S
notes: Dual-Ig
B22: H183/L072 VL T97E (antibody, name in Kabat numbering, V domains shown)
VH: B1 VH
VL: B1 VL with T98S, T102E
notes: Dual-Ig
B23: H183/L072 VL T31A (antibody, name in Kabat numbering, V domains shown)
VH: B1 VH
VL: B1 VL with T36A, T98S
notes: Dual-Ig
B24: H183/L072 VL T31F (antibody, name in Kabat numbering, V domains shown)
VH: B1 VH
VL: B1 VL with T36F, T98S
notes: Dual-Ig
B25: H183/L072 VL T92V (antibody, name in Kabat numbering, V domains shown)
VH: B1 VH
VL: B1 VL with T97V, T98S
notes: Dual-Ig
B26: H183/L072 VL T31W (antibody, name in Kabat numbering, V domains shown)
VH: B1 VH
VL: B1 VL with T36W, T98S
notes: Dual-Ig
B27: H183/L072 VL T31V (antibody, name in Kabat numbering, V domains shown)
VH: B1 VH
VL: B1 VL with T36V, T98S
notes: Dual-Ig
B28: H183/L072 VL T31P (antibody, name in Kabat numbering, V domains shown)
VH: B1 VH
VL: B1 VL with T36P, T98S
notes: Dual-Ig
B29: H183/L072 VL T97D (antibody, name in Kabat numbering, V domains shown)
VH: B1 VH
VL: B1 VL with T98S, T102D
notes: Dual-Ig
B30: H183/L072 VL S93W (antibody, name in Kabat numbering, V domains shown)
VH: B1 VH
VL: B1 VL with T98W
notes: Dual-Ig
B31: H183/L072 VL T92D (antibody, name in Kabat numbering, V domains shown)
VH: B1 VH
VL: B1 VL with T97D, T98S
notes: Dual-Ig
B32: H183/L072 VL T31L (antibody, name in Kabat numbering, V domains shown)
VH: B1 VH
VL: B1 VL with T36L, T98S
notes: Dual-Ig
B33: H183/L072 VL T31M (antibody, name in Kabat numbering, V domains shown)
VH: B1 VH
VL: B1 VL with T36M, T98S
notes: Dual-Ig
B34: H183/L072 VL T92P (antibody, name in Kabat numbering, V domains shown)
VH: B1 VH
VL: B1 VL with T97P, T98S
notes: Dual-Ig
B35: H183/L072 VL T92Q (antibody, name in Kabat numbering, V domains shown)
VH: B1 VH
VL: B1 VL with T97Q, T98S
notes: Dual-Ig
B36: H183/L072 VL T92I (antibody, name in Kabat numbering, V domains shown)
VH: B1 VH
VL: B1 VL with T97I, T98S
notes: Dual-Ig
B37: H183/L072 VL T31E (antibody, name in Kabat numbering, V domains shown)
VH: B1 VH
VL: B1 VL with T36E, T98S
notes: Dual-Ig
B38: H183/L072 VL T97K (antibody, name in Kabat numbering, V domains shown)
VH: B1 VH
VL: B1 VL with T98S, T102K
notes: Dual-Ig
B39: H183/L072 VL T31D (antibody, name in Kabat numbering, V domains shown)
VH: B1 VH
VL: B1 VL with T36D, T98S
notes: Dual-Ig
B40: H183/L072 VL T31Q (antibody, name in Kabat numbering, V domains shown)
VH: B1 VH
VL: B1 VL with T36Q, T98S
notes: Dual-Ig
B41: H183/L072 VL T92A (antibody, name in Kabat numbering, V domains shown)
VH: B1 VH
VL: B1 VL with T97A, T98S
notes: Dual-Ig
B42: H183/L072 VL T92W (antibody, name in Kabat numbering, V domains shown)
VH: B1 VH
VL: B1 VL with T97W, T98S
notes: Dual-Ig
B43: H183/L072 VL T97H (antibody, name in Kabat numbering, V domains shown)
VH: B1 VH
VL: B1 VL with T98S, T102H
notes: Dual-Ig
B44: H183/L072 VL T92M (antibody, name in Kabat numbering, V domains shown)
VH: B1 VH
VL: B1 VL with T97M, T98S
notes: Dual-Ig

molecular target: T1, Human CD137 ECD (human); experiment: Biacore SPR, vs parent H183/L072
T1 construct: entry includes C-terminal His-tag and biotin acceptor peptide; also called human CD137 extracellular domain; 4-1BB
T1 sequence (chain, as listed by the source limits assumed): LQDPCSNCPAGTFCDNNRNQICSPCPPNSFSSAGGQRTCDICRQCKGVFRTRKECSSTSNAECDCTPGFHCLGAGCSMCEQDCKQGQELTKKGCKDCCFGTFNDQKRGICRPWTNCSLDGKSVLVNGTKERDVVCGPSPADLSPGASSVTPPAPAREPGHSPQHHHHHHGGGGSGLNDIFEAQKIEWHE

Binder	fold change of affinity
B1	1.1 fold
B2	0 fold
B3	0.4 fold
B4	0.1 fold
B5	0 fold
B6	0.4 fold
B7	0.2 fold
B8	0.4 fold
B9	0 fold
B10	0.6 fold
B11	0 fold
B12	0 fold
B13	0 fold
B14	1.3 fold
B15	0.6 fold
B16	0.9 fold
B17	0.3 fold
B18	1.1 fold
B19	0.4 fold
B20	0.3 fold
B21	0 fold
B22	0.4 fold

Binder	fold change of affinity
B23	0.4 fold
B24	0.2 fold
B25	0.3 fold
B26	0.1 fold
B27	1 fold
B28	0.4 fold
B29	0 fold
B30	1.2 fold
B31	0 fold
B32	0.5 fold
B33	0.3 fold
B34	0 fold
B35	0 fold
B36	0.1 fold
B37	0.4 fold
B38	1.1 fold
B39	0.1 fold
B40	0.5 fold
B41	0.5 fold
B42	0 fold
B43	0.6 fold
B44	0.4 fold

— patent US20210388087A1 (Chugai, published 2021)
